Data published in patent publication US20210063414A1, “METHODS FOR PREVENTING AND/OR TREATING BONE LOSS CONDITIONS BY MODULATING IRISIN” (Dana-Farber Cancer Institute, Inc., priority 2018, published 2021).

Experiments:
Test in all cases: Crosslinking/co-immunoprecipitation/mass spectrometry (TMT quantitative proteomics) to identify irisin receptors
Type in all cases: binding
[1] = biological target: T1, MLO-Y4 cell surface proteins (Mus musculus, UniProt P59242); conditions: co-precipitated protein Cgn (CING_MOUSE)
T1 construct: endogenous in cells; host or cells: MLO-Y4
T1 sequence (P59242 1-1191): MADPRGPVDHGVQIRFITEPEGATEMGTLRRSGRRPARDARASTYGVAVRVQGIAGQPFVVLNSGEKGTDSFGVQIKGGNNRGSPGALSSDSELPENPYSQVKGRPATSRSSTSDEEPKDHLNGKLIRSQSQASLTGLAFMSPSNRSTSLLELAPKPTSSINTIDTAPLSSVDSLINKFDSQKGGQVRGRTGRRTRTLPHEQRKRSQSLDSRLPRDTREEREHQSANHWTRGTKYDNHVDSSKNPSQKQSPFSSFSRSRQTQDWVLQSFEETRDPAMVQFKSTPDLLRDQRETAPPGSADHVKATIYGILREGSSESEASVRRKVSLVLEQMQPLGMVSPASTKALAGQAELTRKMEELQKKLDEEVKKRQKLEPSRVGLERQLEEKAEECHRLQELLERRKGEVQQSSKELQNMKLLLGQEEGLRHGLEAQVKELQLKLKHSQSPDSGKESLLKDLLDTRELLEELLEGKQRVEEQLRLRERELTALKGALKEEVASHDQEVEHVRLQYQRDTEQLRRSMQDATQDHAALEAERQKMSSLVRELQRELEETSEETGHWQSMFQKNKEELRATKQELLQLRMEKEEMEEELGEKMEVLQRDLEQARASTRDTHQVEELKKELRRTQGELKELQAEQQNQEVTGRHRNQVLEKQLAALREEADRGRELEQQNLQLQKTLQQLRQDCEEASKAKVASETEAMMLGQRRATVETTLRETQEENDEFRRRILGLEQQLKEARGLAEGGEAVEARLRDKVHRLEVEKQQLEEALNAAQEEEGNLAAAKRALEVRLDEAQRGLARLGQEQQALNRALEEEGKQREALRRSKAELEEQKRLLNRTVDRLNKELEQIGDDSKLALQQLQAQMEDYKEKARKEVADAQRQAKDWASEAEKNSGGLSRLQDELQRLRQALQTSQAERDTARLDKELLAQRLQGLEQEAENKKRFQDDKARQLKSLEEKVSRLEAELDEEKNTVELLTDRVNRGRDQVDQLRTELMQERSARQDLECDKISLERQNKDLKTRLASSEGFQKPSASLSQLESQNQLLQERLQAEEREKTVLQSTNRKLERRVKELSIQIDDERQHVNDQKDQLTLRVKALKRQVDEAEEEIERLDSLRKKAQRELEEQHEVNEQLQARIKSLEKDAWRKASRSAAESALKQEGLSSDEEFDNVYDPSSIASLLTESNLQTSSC
Procedure, shortened: (§1)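 Relative protein abundance came from 6-plex TMT MS3 quantitation on an Orbitrap Fusion Lumos, after in-gel trypsin digestion of Coomassie-stained SDS-PAGE lanes. Input was a Ni-NTA pulldown (250 mM imidazole elution) of lysates from murine MLO-Y4 cells. These cells were treated on ice with His-tagged irisin or adipsin (10 nM, 20 min) in serum-free medium, then crosslinked with 1.5 mM DTSSP for 30 min.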

[2] = biological target: T2, MLO-Y4 cell surface proteins (Mus musculus, UniProt Q8R1J9); conditions: co-precipitated protein Tor2a (TOR2A_MOUSE)
T2 construct: endogenous in cells; host or cells: MLO-Y4
T2 sequence (Q8R1J9 27-321): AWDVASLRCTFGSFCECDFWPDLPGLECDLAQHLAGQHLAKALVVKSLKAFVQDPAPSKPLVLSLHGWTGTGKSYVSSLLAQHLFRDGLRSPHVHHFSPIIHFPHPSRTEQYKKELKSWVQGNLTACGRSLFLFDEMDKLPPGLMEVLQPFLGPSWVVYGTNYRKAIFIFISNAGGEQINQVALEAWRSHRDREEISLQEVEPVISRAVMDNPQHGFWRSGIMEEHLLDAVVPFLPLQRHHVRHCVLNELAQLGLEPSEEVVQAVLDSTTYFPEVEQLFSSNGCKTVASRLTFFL
Procedure, shortened: as §1

[3] = biological target: T3, MLO-Y4 cell surface proteins (Mus musculus, UniProt Q9JHS4); conditions: co-precipitated protein Clpx (CLPX_MOUSE)
T3 construct: endogenous in cells; host or cells: MLO-Y4
T3 sequence (Q9JHS4 57-634): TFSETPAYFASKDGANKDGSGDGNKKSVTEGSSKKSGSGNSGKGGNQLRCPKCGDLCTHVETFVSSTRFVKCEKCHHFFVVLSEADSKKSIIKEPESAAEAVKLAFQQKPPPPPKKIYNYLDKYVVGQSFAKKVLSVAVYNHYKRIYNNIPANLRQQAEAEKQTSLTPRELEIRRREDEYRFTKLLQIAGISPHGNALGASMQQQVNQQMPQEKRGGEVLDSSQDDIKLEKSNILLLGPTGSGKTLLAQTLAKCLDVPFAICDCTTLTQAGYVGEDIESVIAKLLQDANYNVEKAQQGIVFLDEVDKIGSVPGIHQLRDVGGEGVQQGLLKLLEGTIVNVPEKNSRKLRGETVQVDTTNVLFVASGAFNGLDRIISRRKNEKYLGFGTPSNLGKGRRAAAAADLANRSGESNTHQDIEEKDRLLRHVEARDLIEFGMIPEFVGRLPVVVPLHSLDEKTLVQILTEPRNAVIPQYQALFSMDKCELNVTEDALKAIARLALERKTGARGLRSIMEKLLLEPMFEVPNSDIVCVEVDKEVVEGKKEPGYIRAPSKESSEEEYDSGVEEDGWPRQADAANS
Procedure, shortened: as §1

B1: irisin: secreted cleaved form of FNDC5; recombinant human/mouse irisin with C-terminal his tag produced in HEK293 cells (protein)
chain: DSPSAPVNVTVRHLKANSAVVSWDVLEDEVVIGFAISQQKKDVRMLRFIQEVNTTTRSCALWDLEEDTEYIVHVQAISIQGQSPASEPVLFKTPREAEKMASKNKDEVTMKE
modifications: left off: small tags and cut ends
notes: secreted cleaved form of FNDC5; recombinant human/mouse irisin with C-terminal his tag produced in HEK293 cells
How did the TMT signal-to-noise ratio [1] turn out when B1 was run?
Its TMT signal-to-noise ratio is 16.0255.

And the “irisin/adipsin TMT signal-to-noise ratio” value [1]?
The value was 0.080.

What about the TMT signal-to-noise ratio [2] of the same molecule?
The TMT signal-to-noise ratio was 338.383.

What about the “irisin/adipsin TMT signal-to-noise ratio” value [2] of the same molecule?
The value was 0.486.

What about the TMT signal-to-noise ratio [3] of the same molecule?
Its TMT signal-to-noise ratio is 851.066.

What about the “irisin/adipsin TMT signal-to-noise ratio” value [3] of the same molecule?
Its value is 0.561.
